Assay results published in patent publication US20260116991A1 (HAINAN SIMCERE ZAIMING PHARMACEUTICAL, published 2026).
Numbering of substitutions follows the chain as printed. Like-named read-outs stand apart in the source and are kept apart here. Each block holds one binder with its values, some of them ahead of it.

What was measured:
[1] = biological target: T1, monkey GPC3-His protein (monkey); assay: ELISA, monkey GPC3-His coated;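 further: Plate-coated antigen at 1 µg/mL, antibody binding 2 h at 37 °C, detected with HRP-labeled secondary antibody and TMB, absorbance at 450 nm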
T1 construct: Bought recombinant protein; also called monkey GPC3 protein

[2] = biological target: T2, monkey GPC3 on HEK293T-monkey GPC3 cells (monkey); assay: FACS on HEK293T-monkey GPC3 cells
T2 construct: whole, on cells
Description: The desired cells were expanded to a logarithmic growth phase in a T-75 cell culture flask, the medium was removed by pipetting, and the cells were washed twice with a PBS buffer, and digested with trypsin. Then a complete medium was added to stop the digestion, and the cells were blown into a single cell suspension. After counting, the cells were centrifuged, and the cell pellet was resuspended with an FACS buffer (PBS+2% fetal bovine serum) to 2×10⁶ cells/mL. The cell resuspension solution was added to a 96-well FACS reaction plate at 50 μl/well, and a chimeric antibody sample to be tested was added at 50 μl/well for incubation at 4° C. for 1 h. […] After the plate was centrifuged and washed 3 times with a PBS buffer, 100 μl of the resulting solution was assayed and analyzed by FACS (FACS Canto™, purchased from BD Biosciences). Data analysis was performed by software (FlowJo) to obtain the mean fluorescence intensity (MFI) of the cells. Then, analysis was performed by software (GraphPad Prism8), data were fitted, and EC₅₀ values were calculated.

[3] = biological target: T3, human GPC3-His protein (human, UniProt P51654 25-559); assay: SPR, antibody captured on Protein A chip, human GPC3-His analyte;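 further: measured at 25 °C flow cell, human GPC3-His injected at five concentrations up to 200 nM, 240 s association, up to 600 s dissociation, double-referenced, fitted to Langmuir 1:1 model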
T3 construct: also called human GPC3 protein; not shown: His tag

[4] = biological target: T1, monkey GPC3-His protein; assay: SPR, antibody captured on Protein A chip, monkey GPC3-His analyte;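 further: run at 25 °C with 240 s association and up to 600 s dissociation, double-referenced, kinetics fitted to a 1:1 Langmuir binding model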
Description: The flow cell was set at 25° C. The sample block was set at 16° C. Both were pretreated with the running buffer. In each cycle, first, the antibody to be tested was captured using the Protein A chip, and then a single concentration of GPC3 antigen protein was injected. […] The association was determined by injecting different concentrations of human GPC3-His in the solution and maintaining for 240 s, wherein the flow rate was 30 μL/min, and the protein was diluted at a 1:1 dilution ratio from 200 nM to obtain 5 concentrations in total. The dissociation phase was monitored for up to 600 s and triggered by switching from the sample solution to the running buffer. The surface was regenerated by washing with 10 mM glycine solution (pH 1.5) at a flow rate of 30 μL/min for 30 s. The difference in bulk refractive index was corrected by subtracting the responses obtained from the goat anti-human Fc surface. Blank injections (double reference) were also subtracted. To calculate the apparent KD and other kinetic parameters, the Langmuir 1:1 model was used.

[5] = biological target: T4, monkey GPC3 on HEK293T-monkey GPC3 cells (monkey); assay: FACS on HEK293T-monkey GPC3 cells; remark: listed apart in the source
T4 construct: whole, on cells

[6] = biological target: T5, human GPC3-His protein (human, UniProt P51654 25-559, limits assumed); assay: SPR, antibody captured on Protein A chip, human GPC3-His injected, 1:1 Langmuir model;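 further: flow cell at 25 °C, antigen injected for 240 s at five twofold dilutions starting at 200 nM, dissociation followed up to 600 s, double-referenced sensorgrams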
T5 construct: also called human GPC3 protein; not shown: His tag

B2: F4.26.1 (antibody, human IgG1, kappa, V domains shown)
VH: QVQLKQSGPGLVQPSQSLSITCTVSGFSLTSYGVHWVRQSPGKGLEWLGVIWSSGNTDYNAVLISRLSIKKDDSKSQVFFKMNSPQVDDSAIYYCGRNGGWLLRGFMDFWGQGTSVTVSS
VL: DVVMTQTPLSLPVSLGDQASISCRSSQSLLHSNGNTYLHWYLQRSGQSPNLLIYKVSNRFSGVPDRFSGGGSGTDFTLKISRVEAEDLGIYFCSQSTHVPWTFGGGTKLEIKR
notes: Human-murine chimeric antibody
- OD450 at 0.0001 nM [1]: 0.27 OD450
- OD450 at 0.001 nM [1]: 0.07 OD450
- OD450 at 0.01 nM [1]: 0.18 OD450
- OD450 at 0.1 nM [1]: 0.89 OD450
- OD450 at 1 nM [1]: 1.38 OD450
- OD450 at 10 nM [1]: 1.88 OD450
- OD450 at 100 nM [1]: 1.5 OD450
- EC50 [2]: 1.21 nM
- Max MFI [2]: 50500 MFI
- Kd [3]: 2.34 nM
- koff [3]: 0.000461 s⁻¹
- kon [3]: 197000 M⁻¹ s⁻¹
- Kd [4]: 1.38 nM
- koff [4]: 0.000587 s⁻¹
- kon [4]: 425000 M⁻¹ s⁻¹

B4: F4.21.16 (antibody, human IgG1, kappa, V domains shown)
VH: DVQLQESGPGLVKPSQSLSLTCSVTGYSITSGYYWNWIRQFPGNKLEWMGYISYDVTVNYNPSLKNRISITRDTSKNQFFLKLNSVTTEDTATYYCATITSVASMDHWGQGTSVTVSS
VL: DILMTQTPLSLPVSLGDQASISCRSSQNIVHRNGNTYLEWYLQKPGQSPKLLLYKVSNRFSGVPDRFSGSGSGTDFTLKISRVEAEDLGIYYCFQGSHFPFTFGSGTKLEIKR
notes: as for B2
- OD450 at 0.0001 nM [1]: 0.04 OD450
- OD450 at 0.001 nM [1]: 0.06 OD450
- OD450 at 0.01 nM [1]: 0.05 OD450
- OD450 at 0.1 nM [1]: 0.1 OD450
- OD450 at 1 nM [1]: 1.41 OD450
- OD450 at 10 nM [1]: 1.65 OD450
- OD450 at 100 nM [1]: 1.08 OD450
- EC50 [2]: 3.25 nM
- Max MFI [2]: 50900 MFI
- Kd [3]: 6.58 nM
- koff [3]: 0.000267 s⁻¹
- kon [3]: 40600 M⁻¹ s⁻¹
- Kd [4]: 7.81 nM
- koff [4]: 0.000303 s⁻¹
- kon [4]: 38800 M⁻¹ s⁻¹

B6: F3.81.19 (antibody, human IgG1, kappa, V domains shown)
VH: QVQLQQSGAELVRPGASVKLSCKASGYTFTDYEMHWVKQTPVHGLEWIGTIDPETGNTAYNQKFKGKATLTADKSSSTAYMELRSLTSEDSAVYYCTRPYSLTYWGQGTLVTVSA
VL: DVLLTQTPLSLPVSLGDQASISCRSSQSFVHSNGDTYLQWYLQKPGQSPKLLIYKVSNRFSGVPDRFSGSGSGTDFTLKISRVEAEDLGVYYCFQGSHVPYTFGSGTKLEIKR
notes: as for B2
- OD450 at 0.0001 nM [1]: 0.05 OD450
- OD450 at 0.001 nM [1]: 0.06 OD450
- OD450 at 0.01 nM [1]: 0.16 OD450
- OD450 at 0.1 nM [1]: 0.62 OD450
- OD450 at 1 nM [1]: 1.96 OD450
- OD450 at 10 nM [1]: 2.55 OD450
- OD450 at 100 nM [1]: 2.49 OD450
- EC50 [2]: 2.58 nM
- Max MFI [2]: 106000 MFI
- Kd [3]: 0.545 nM
- koff [3]: 0.000231 s⁻¹
- kon [3]: 424000 M⁻¹ s⁻¹
- Kd [4]: 0.415 nM
- koff [4]: 0.000261 s⁻¹
- kon [4]: 631000 M⁻¹ s⁻¹

B8: hAb001H1L1b (antibody, human IgG1, V domains shown)
VH: EVQLVESGGGLVQPGGSLRLSCAASGFSFNTNAMNWVRQAPGKGLEWVGRIRSKSNNYATYYADSVKDRFTISRDDSKNSLYLQMNSLKTEDTAVYYCVRDGYYVLFAYWGQGTLVTVSS
VL: DIVMTQTPLSLPVTPGEPASISCRFSQSIVNSNANTYLEWFLQKPGQSPQLLIYKVSNRFSGVPDRFSGSGSGTDFTLKISRVEAEDVGVYYCFQGSHVPFTFGQGTKLEIK
notes: Humanized F2.169.2
- EC50 [5]: 1.54 nM
- Max MFI [5]: 32900 MFI
- Kd [6]: 19.8 nM
- koff [6]: 0.937 s⁻¹
- kon [6]: 4.74e+07 M⁻¹ s⁻¹

The remaining lines, values ahead:

- OD450 at 0.0001 nM [1]: 0.08 OD450
- OD450 at 0.001 nM [1]: 0.1 OD450
- OD450 at 0.01 nM [1]: 0.41 OD450
- OD450 at 0.1 nM [1]: 1.57 OD450
- OD450 at 1 nM [1]: 2.21 OD450
- OD450 at 10 nM [1]: 2.32 OD450
- OD450 at 100 nM [1]: 2.76 OD450
- EC50 [2]: 0.72 nM
- Max MFI [2]: 115000 MFI
- Kd [3]: 4.09 nM
- koff [3]: 0.00112 s⁻¹
- kon [3]: 275000 M⁻¹ s⁻¹
- Kd [4]: 2.17 nM
- koff [4]: 0.00117 s⁻¹
- kon [4]: 541000 M⁻¹ s⁻¹
B1: F3.54.12 (antibody, human IgG1, kappa, V domains shown)
VH: B6 VH with T50A, N61I, A72T, P99F, L102Y, T103S, Y104H, L110T, V111L, A115S
VL: B2 VL with L30V, R44K, S45P, N50K, G70S, G71S, I90V, S96N, W101P
notes: as for B2

- OD450 at 0.0001 nM [1]: 0.05 OD450
- OD450 at 0.001 nM [1]: 0.1 OD450
- OD450 at 0.01 nM [1]: 0.46 OD450
- OD450 at 0.1 nM [1]: 1.69 OD450
- OD450 at 1 nM [1]: 2.38 OD450
- OD450 at 10 nM [1]: 2.49 OD450
- OD450 at 100 nM [1]: 2.24 OD450
- EC50 [2]: 0.41 nM
- Max MFI [2]: 12400 MFI
- Kd [3]: 1.21 nM
- koff [3]: 0.000563 s⁻¹
- kon [3]: 466000 M⁻¹ s⁻¹
- Kd [4]: 0.706 nM
- koff [4]: 0.000504 s⁻¹
- kon [4]: 713000 M⁻¹ s⁻¹
B3: F2.154.1 (antibody, human IgG1, kappa, V domains shown)
VH: B6 VH with T28R, N61T, K65M, G66D, P99G, L102F, V111A
VL: B6 VL with L4M, S28N, F29I, D35N, Y54F, Y101F, S105T
notes: as for B2

- OD450 at 0.0001 nM [1]: 0.06 OD450
- OD450 at 0.001 nM [1]: 0.1 OD450
- OD450 at 0.01 nM [1]: 0.42 OD450
- OD450 at 0.1 nM [1]: 1.69 OD450
- OD450 at 1 nM [1]: 2.37 OD450
- OD450 at 10 nM [1]: 2.58 OD450
- OD450 at 100 nM [1]: 3.01 OD450
- EC50 [2]: 0.85 nM
- Max MFI [2]: 110000 MFI
- Kd [3]: 0.997 nM
- koff [3]: 0.000361 s⁻¹
- kon [3]: 362000 M⁻¹ s⁻¹
- Kd [4]: 0.725 nM
- koff [4]: 0.000386 s⁻¹
- kon [4]: 532000 M⁻¹ s⁻¹
B5: F3.38.7 (antibody, human IgG1, kappa, V domains shown)
VH: QVQLQQSGAELVRPGASVKLSCKASGYTFTDYEIHWVKQTPVLGLEWIGAIDPKTGNTAYNQKFMGKATLTADKSSTTAYMDLRSLTSEDSAVYYCTRYFSFAYWGQGTLVTVSA
VL: B6 VL with L4M, S28T, D35N
notes: as for B2

- OD450 at 0.0001 nM [1]: 0.14 OD450
- OD450 at 0.001 nM [1]: 0.12 OD450
- OD450 at 0.01 nM [1]: 0.14 OD450
- OD450 at 0.1 nM [1]: 0.85 OD450
- OD450 at 1 nM [1]: 0.77 OD450
- OD450 at 10 nM [1]: 1.32 OD450
- OD450 at 100 nM [1]: 1.9 OD450
- EC50 [2]: 0.89 nM
- Max MFI [2]: 52600 MFI
- Kd [3]: 5.08 nM
- koff [3]: 0.000443 s⁻¹
- kon [3]: 87100 M⁻¹ s⁻¹
- Kd [4]: 4.65 nM
- koff [4]: 0.000552 s⁻¹
- kon [4]: 119000 M⁻¹ s⁻¹
B7: F4.18.4 (antibody, human IgG1, kappa, V domains shown)
VH: QVQLHQSGAEMAKPGASVNLSCKTSGFTFTDYGISWVKQRTRQGLEWIGDIYPRHINIYYNEKFKDKATLTADRSSSTAYMELRSMTSEDSAVYFCARRGTTGRGALDYWGQGTSLTVSS
VL: DILLTQSPAILSVSPGERVSFSCRASQSIGTSIHWYQQRTNGSPRLLIKYAFESISGIPSRFGGSGSRTDFTLTINSVESEDIADYYCQQTYNWPYTFGGGTKLEIKR
notes: as for B2
